Biological target: WRKY6-His (UniProt Q9C519)
Experiment: EMSA
Conditions: EMSA: 20 uL, 0.5 ug protein, 1 uL of 50 ug/mL biotin probe, 2 uL 10x buffer (1x = 10 mM Tris, 50 mM KCl, 1 mM DTT, pH 7.5), 1 uL 1% NP-40, 0.5 uL 1 mg/mL …

Sequence of WRKY6-His (Q9C519 whole entry): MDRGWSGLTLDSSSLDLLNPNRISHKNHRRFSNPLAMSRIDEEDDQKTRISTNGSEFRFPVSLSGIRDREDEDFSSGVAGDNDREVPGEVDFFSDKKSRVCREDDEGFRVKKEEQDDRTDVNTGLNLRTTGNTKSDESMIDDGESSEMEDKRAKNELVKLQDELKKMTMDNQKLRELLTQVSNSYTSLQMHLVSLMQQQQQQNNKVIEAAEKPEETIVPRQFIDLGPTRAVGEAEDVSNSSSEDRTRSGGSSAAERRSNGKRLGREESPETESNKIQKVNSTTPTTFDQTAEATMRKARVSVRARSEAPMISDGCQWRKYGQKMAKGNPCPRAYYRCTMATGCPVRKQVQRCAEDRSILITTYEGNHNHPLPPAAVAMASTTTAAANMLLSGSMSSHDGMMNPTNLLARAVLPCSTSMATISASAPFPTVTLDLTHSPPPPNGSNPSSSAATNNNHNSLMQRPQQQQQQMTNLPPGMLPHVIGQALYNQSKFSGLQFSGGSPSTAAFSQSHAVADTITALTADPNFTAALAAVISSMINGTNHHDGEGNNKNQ

| Sequence | binding |
| --- | --- |
| GATAAGATCGTAAGCTATCCACATCACTTGTTAATTGTCCTCAAACCATATTATATAATGCAAACAATTTATGGCGTTAAATCCTTACGTATTTATTCTCTATAAGAGTAAAACACACACACTGAAGGCAACTGATTTAATTGGATTTCTATACGTCAGTAGAAATACTTGTTATGATGTCGGTCGCTCGTTGGCTAAGTATTTCTTATAAATATATAAGACATATTTAAAATCTTTTTACATTACATACACCCACTTATGAGAAAC (double strand) [RAV1 promoter P2 mutant] | no binding |
| GATAAGATCGTAAGCTATCCACATCACTTGTTAATTGTCCTCAAACCATATTATATAATGCAAACAATTTATGGCGTTAAATCCTTACGTATTTATTCTCTATAAGAGTAAAACACACACACTGAAGGCAACTGATTTAATTGGATTTCTATTGACCAGTAGAAATACTTGTTATGATGTCGGTCGCTCGTTGGCTAAGTATTTCTTATAAATATATAAGACATATTTAAAATCTTTTTACATTACATACACCCACTTATGAGAAAC (double strand) [RAV1 promoter P2] | binds |
| GGAAAATTCCTATTTTCCCGATTACATTTTAACACATCAAAATAGGTACTGTGTTTTATAAATCTGAACAAACAATTAGTAATGTTCATACTTTAACATTTAAAAAATTCAAATTATCTACCTCAACTCTTACTTTTGTACATAATTATGAGTCAACGTTAGTTATGGTAATTAACAGTAACGGTTGTTGAATCAGCTAACACTTGTACGTCGAGATGGCATGTTCTTCAAACCAAAT (double strand) [ABI3 promoter fragment] | binds |

From paper PMC4734665
